Results as given in patent US20140294898A1 (published 2014).
Positions of bridges follow the written chain, without caps; N, C: chain ends. Non-standard residues stand in square brackets, D forms with d. 1Nal = N[C@@H](Cc1cccc2ccccc12)C(=O)O; 2Nal = N[C@@H](Cc1ccc2ccccc2c1)C(=O)O; NMeNle = CCCC[C@H](NC)C(=O)O; NMeV = CN[C@H](C(=O)O)C(C)C; NMeA = CN[C@@H](C)C(=O)O; Sar = CNCC(=O)O

B1: Compound No. 27 (peptide)
peptide: {CH2CO}-[1Nal][NMeA]NPHL[Sar]WSW[NMeNle][NMeNle]RCG-NH2
modifications: thioether N-14
SMILES: CCCC[C@H]1C(=O)N(C)[C@@H](CCCC)C(=O)N[C@@H](CCCNC(=N)N)C(=O)N[C@H](C(=O)NCC(N)=O)CSCC(=O)N[C@@H](Cc2cccc3ccccc23)C(=O)N(C)[C@@H](C)C(=O)N[C@@H](CC(N)=O)C(=O)N2CCC[C@H]2C(=O)N[C@@H](Cc2c[nH]cn2)C(=O)N[C@@H](CC(C)C)C(=O)N(C)CC(=O)N[C@@H](Cc2c[nH]c3ccccc23)C(=O)N[C@@H](CO)C(=O)N[C@@H](Cc2c[nH]c3ccccc23)C(=O)N1C
B2: Compound No. 26 (peptide)
peptide: {CH2CO}-[2Nal][NMeA]NPHL[Sar]WSW[NMeNle][NMeNle]RCG-NH2
modifications: thioether N-14
SMILES: CCCC[C@H]1C(=O)N(C)[C@@H](CCCC)C(=O)N[C@@H](CCCNC(=N)N)C(=O)N[C@H](C(=O)NCC(N)=O)CSCC(=O)N[C@@H](Cc2ccc3ccccc3c2)C(=O)N(C)[C@@H](C)C(=O)N[C@@H](CC(N)=O)C(=O)N2CCC[C@H]2C(=O)N[C@@H](Cc2c[nH]cn2)C(=O)N[C@@H](CC(C)C)C(=O)N(C)CC(=O)N[C@@H](Cc2c[nH]c3ccccc23)C(=O)N[C@@H](CO)C(=O)N[C@@H](Cc2c[nH]c3ccccc23)C(=O)N1C
B3: Compound No. 24 (peptide)
peptide: {CH2CO}-F[NMeA]NPHL[Sar]WSW[NMeNle][NMeNle]RC-NH2
modifications: thioether N-14
SMILES: CCCC[C@H]1C(=O)N(C)[C@@H](CCCC)C(=O)N[C@@H](CCCNC(=N)N)C(=O)N[C@H](C(N)=O)CSCC(=O)N[C@@H](Cc2ccccc2)C(=O)N(C)[C@@H](C)C(=O)N[C@@H](CC(N)=O)C(=O)N2CCC[C@H]2C(=O)N[C@@H](Cc2c[nH]cn2)C(=O)N[C@@H](CC(C)C)C(=O)N(C)CC(=O)N[C@@H](Cc2c[nH]c3ccccc23)C(=O)N[C@@H](CO)C(=O)N[C@@H](Cc2c[nH]c3ccccc23)C(=O)N1C
B4: Compound No. 12 (peptide)
peptide: {CH2CO}-F[NMeA]NPHLGWSW[NMeNle][NMeNle]RCG-NH2
modifications: thioether N-14
SMILES: CCCC[C@H]1C(=O)N(C)[C@@H](CCCC)C(=O)N[C@@H](CCCNC(=N)N)C(=O)N[C@H](C(=O)NCC(N)=O)CSCC(=O)N[C@@H](Cc2ccccc2)C(=O)N(C)[C@@H](C)C(=O)N[C@@H](CC(N)=O)C(=O)N2CCC[C@H]2C(=O)N[C@@H](Cc2c[nH]cn2)C(=O)N[C@@H](CC(C)C)C(=O)NCC(=O)N[C@@H](Cc2c[nH]c3ccccc23)C(=O)N[C@@H](CO)C(=O)N[C@@H](Cc2c[nH]c3ccccc23)C(=O)N1C
B5: Compound No. 21 (peptide)
peptide: FANPHLGWSWXARCG
HELM: PEPTIDE1{[O=C(C[*:3])[*:2]].F.[meA].N.P.H.L.[Sar].W.S.W.[CCCC[C@@H](C(=O)[*:2])N(C)[*:1]].[meA].R.C.G.[am]}$PEPTIDE1,PEPTIDE1,1:R3-15:R3$$$V2.0
SMILES: CCCC[C@H]1C(=O)N(C)[C@@H](C)C(=O)N[C@@H](CCCNC(=N)N)C(=O)N[C@H](C(=O)NCC(N)=O)CSCC(=O)N[C@@H](Cc2ccccc2)C(=O)N(C)[C@@H](C)C(=O)N[C@@H](CC(N)=O)C(=O)N2CCC[C@H]2C(=O)N[C@@H](Cc2c[nH]cn2)C(=O)N[C@@H](CC(C)C)C(=O)N(C)CC(=O)N[C@@H](Cc2c[nH]c3ccccc23)C(=O)N[C@@H](CO)C(=O)N[C@@H](Cc2c[nH]c3ccccc23)C(=O)N1C
B6: Compound No. 25 (peptide)
peptide: {CH2CO}-W[NMeA]NPHL[Sar]WSW[NMeNle][NMeNle]RCG-NH2
modifications: thioether N-14
SMILES: CCCC[C@H]1C(=O)N(C)[C@@H](CCCC)C(=O)N[C@@H](CCCNC(=N)N)C(=O)N[C@H](C(=O)NCC(N)=O)CSCC(=O)N[C@@H](Cc2c[nH]c3ccccc23)C(=O)N(C)[C@@H](C)C(=O)N[C@@H](CC(N)=O)C(=O)N2CCC[C@H]2C(=O)N[C@@H](Cc2c[nH]cn2)C(=O)N[C@@H](CC(C)C)C(=O)N(C)CC(=O)N[C@@H](Cc2c[nH]c3ccccc23)C(=O)N[C@@H](CO)C(=O)N[C@@H](Cc2c[nH]c3ccccc23)C(=O)N1C
B7: Compound No. 41 (peptide)
peptide: {CH2CO}-F[NMeV]NPHL[Sar]WSW[NMeNle][NMeNle]RCG-NH2
modifications: thioether N-14
SMILES: CCCC[C@H]1C(=O)N(C)[C@@H](CCCC)C(=O)N[C@@H](CCCNC(=N)N)C(=O)N[C@H](C(=O)NCC(N)=O)CSCC(=O)N[C@@H](Cc2ccccc2)C(=O)N(C)[C@@H](C(C)C)C(=O)N[C@@H](CC(N)=O)C(=O)N2CCC[C@H]2C(=O)N[C@@H](Cc2c[nH]cn2)C(=O)N[C@@H](CC(C)C)C(=O)N(C)CC(=O)N[C@@H](Cc2c[nH]c3ccccc23)C(=O)N[C@@H](CO)C(=O)N[C@@H](Cc2c[nH]c3ccccc23)C(=O)N1C
B8: Compound No. 43 (peptide)
peptide: {CH2CO}-F[NMeA]GPHL[Sar]WSW[NMeNle][NMeNle]RCG-NH2
modifications: thioether N-14
SMILES: CCCC[C@H]1C(=O)N(C)[C@@H](CCCC)C(=O)N[C@@H](CCCNC(=N)N)C(=O)N[C@H](C(=O)NCC(N)=O)CSCC(=O)N[C@@H](Cc2ccccc2)C(=O)N(C)[C@@H](C)C(=O)NCC(=O)N2CCC[C@H]2C(=O)N[C@@H](Cc2c[nH]cn2)C(=O)N[C@@H](CC(C)C)C(=O)N(C)CC(=O)N[C@@H](Cc2c[nH]c3ccccc23)C(=O)N[C@@H](CO)C(=O)N[C@@H](Cc2c[nH]c3ccccc23)C(=O)N1C
B9: Compound No. 30 (peptide)
peptide: {CH2CO}-Y[NMeA]NPHL[Sar]WSW[NMeNle][NMeNle]RCG-NH2
modifications: thioether N-14
SMILES: CCCC[C@H]1C(=O)N(C)[C@@H](CCCC)C(=O)N[C@@H](CCCNC(=N)N)C(=O)N[C@H](C(=O)NCC(N)=O)CSCC(=O)N[C@@H](Cc2ccc(O)cc2)C(=O)N(C)[C@@H](C)C(=O)N[C@@H](CC(N)=O)C(=O)N2CCC[C@H]2C(=O)N[C@@H](Cc2c[nH]cn2)C(=O)N[C@@H](CC(C)C)C(=O)N(C)CC(=O)N[C@@H](Cc2c[nH]c3ccccc23)C(=O)N[C@@H](CO)C(=O)N[C@@H](Cc2c[nH]c3ccccc23)C(=O)N1C
B10: Compound No. 19 (peptide)
peptide: FANPHLGWSWAXRCG
HELM: PEPTIDE1{[O=C(C[*:3])[*:2]].F.[meA].N.P.H.L.[Sar].W.S.W.[meA].[CCCC[C@@H](C(=O)[*:2])N(C)[*:1]].R.C.G.[am]}$PEPTIDE1,PEPTIDE1,1:R3-15:R3$$$V2.0
SMILES: CCCC[C@H]1C(=O)N[C@@H](CCCNC(=N)N)C(=O)N[C@H](C(=O)NCC(N)=O)CSCC(=O)N[C@@H](Cc2ccccc2)C(=O)N(C)[C@@H](C)C(=O)N[C@@H](CC(N)=O)C(=O)N2CCC[C@H]2C(=O)N[C@@H](Cc2c[nH]cn2)C(=O)N[C@@H](CC(C)C)C(=O)N(C)CC(=O)N[C@@H](Cc2c[nH]c3ccccc23)C(=O)N[C@@H](CO)C(=O)N[C@@H](Cc2c[nH]c3ccccc23)C(=O)N(C)[C@@H](C)C(=O)N1C

Molecular target: T1, hPDL1(19-239)-TVMV-His (human, UniProt Q9NZQ7 19-239)
T1 construct: The text says amino acids 18-239, the construct name says 19-239; Expressed in HEK293T cells; Used at 10 nM final in the HTRF assay; also called PD-L1-His; PD-L1-TVMV-His
Assay: HTRF competition, PD-1-Ig binding to PD-L1-His
Method: All binding studies were performed in an HTRF assay buffer consisting of dPBS supplemented with 0.1% (w/v) bovine serum albumin and 0.05% (v/v) Tween-20. […] PD-L1 fusion proteins from either human, cynomologous macaques, or mouse were used. HTRF detection was achieved using europium crypate-labeled anti-Ig monoclonal antibody (1 nM final) and allophycocyanin (APC) labeled anti-His monoclonal antibody (20 nM final). Antibodies were diluted in HTRF detection buffer and 5 μl was dispensed on top of binding reaction. The reaction was allowed to equilibrate for 30 minutes and signal (665 nm/620 nm ratio) was obtained using an EnVision fluorometer. […]
HTRF Experiments were performed essentially as outlined supra. Variant macrocyclic peptides were created as outlined herein.

T1 sequence (Q9NZQ7 other isoform, or with tags, fused parts or gaps limits assumed): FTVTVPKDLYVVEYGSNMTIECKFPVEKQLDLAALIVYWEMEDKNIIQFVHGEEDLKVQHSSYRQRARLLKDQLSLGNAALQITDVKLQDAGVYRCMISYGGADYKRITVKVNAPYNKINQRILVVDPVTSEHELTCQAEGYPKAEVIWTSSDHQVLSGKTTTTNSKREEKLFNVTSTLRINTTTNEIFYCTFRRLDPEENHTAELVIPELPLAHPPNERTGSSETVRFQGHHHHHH

Binder | IC50
B1 | 20 nM
B2 | 15 nM
B3 | 9 nM
B4 | 22 nM
B5 | 21 nM
B6 | 27 nM
B7 | 921 nM
B8 | 554 nM
B9 | 5 nM
B10 | 33 nM
